# Measurements from patent publication US20250057951A1, “DISCERNIBLE CELL SURFACE PROTEIN VARIANTS OF CD117 FOR USE IN CELL THERAPY” (UNIVERSITÄT BASEL, priority 2021, published 2025).
# T1: S261V (limits assumed)
# T1 construct: not in the list MOLECULES; also called human CD117 D1-2-3 variant S261V
# T1 extracellular domains 1, 2 and 3: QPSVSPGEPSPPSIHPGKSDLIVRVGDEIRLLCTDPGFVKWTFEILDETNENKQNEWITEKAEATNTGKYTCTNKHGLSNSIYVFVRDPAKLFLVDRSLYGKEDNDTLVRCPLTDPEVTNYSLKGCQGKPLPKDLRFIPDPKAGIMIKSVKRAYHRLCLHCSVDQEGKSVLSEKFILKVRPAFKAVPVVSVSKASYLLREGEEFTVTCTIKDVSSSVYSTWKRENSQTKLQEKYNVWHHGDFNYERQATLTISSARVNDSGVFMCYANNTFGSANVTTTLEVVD
# T2: Y259G (limits assumed)
# T2 construct: not in the list MOLECULES; also called human CD117 D1-2-3 variant Y259G
# T2 extracellular domains 1, 2 and 3: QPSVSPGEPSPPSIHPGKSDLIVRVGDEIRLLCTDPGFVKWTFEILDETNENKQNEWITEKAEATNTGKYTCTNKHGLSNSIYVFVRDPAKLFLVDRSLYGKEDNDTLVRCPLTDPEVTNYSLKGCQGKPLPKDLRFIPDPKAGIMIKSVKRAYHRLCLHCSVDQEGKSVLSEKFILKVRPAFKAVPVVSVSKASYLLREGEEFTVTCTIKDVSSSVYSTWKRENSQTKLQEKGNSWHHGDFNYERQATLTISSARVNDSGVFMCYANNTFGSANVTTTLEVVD
# Assays:
# Refmab #1 = Refmab #1 titration on engineered TF-1 cells (flow cytometry); assay type: binding; settings: 5-0.00015 μg/mL antibody; 4° C.
# Chain of Refmab #1 (as listed by the source): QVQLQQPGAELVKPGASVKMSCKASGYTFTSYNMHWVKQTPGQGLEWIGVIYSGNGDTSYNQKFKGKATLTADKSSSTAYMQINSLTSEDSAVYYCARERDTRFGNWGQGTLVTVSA
# Chain of Refmab #1 (as listed by the source): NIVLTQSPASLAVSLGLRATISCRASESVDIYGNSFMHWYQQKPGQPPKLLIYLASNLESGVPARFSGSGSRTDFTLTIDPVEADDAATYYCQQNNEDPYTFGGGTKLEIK
# Experimental: Binding of Refmab #1 was assessed in a flow cytometry assay. TF-1 cells were seeded at a cell concentration of 1,000,000 cells/ml in FACS Buffer (PBS+2% FCS+1 mM EDTA). After a Fc blocking using 1:20 diluted TruStain (BioLegend, #422302) in FACS buffer for 15 minutes at 4° C., cells were washed twice with FACS buffer. Subsequently, a SR-1 titration was added to the cells using 5-0.00015 μg/mL antibody for 30 minutes at 4° C. on a plate shaker. Cells were washed twice with FACS buffer and a secondary labelled antibody (IgG (H+L) Cross-Adsorbed Goat anti-Human, Alexa Fluor® 488, Invitrogen, A11013) was added to the cells for 30 minutes at 4° C. on a plate shaker. Cells were washed twice with FACS buffer, before adding 1:100 diluted solution of 7AAD staining (cell viability) in FACS buffer for a couple of minutes and analyzing the cells using the Novocyte Quanteon (Agilent).
# TF-1 cells [1] = assay: SCF-dependent proliferation of TF-1 cells with CD117 knock-in (CellTiter-Glo); assay type: cell-based, human; settings: 100 ng/ml SCF; 3 days; knock-in TF-1 cells
# Experimental: SCF-dependent proliferation is another function of CD117. SCF-dependent proliferation was measured as follows: TF-1 cells were seeded at a cell concentration of 150 000 cells/ml in sterile, white cell culture treated plates in RPMI Media+10% FCS. Cells were treated with 100 ng/ml of SCF and a titration of various CD117 antibodies or an isotype control antibody at different concentrations. After 3 days of incubation a CellTiter-Glo 2.0 assay (Promega) was performed and luminescence was read in a luminometer (e.g. Envision or Phera Star plate readers).
# CD117 wild-type TF-1 cells were compared to TF1 cells with a E73K knock in. […] Both KI1 and KI2 were obtained upon sorting the edited TF1 cells using the SONY MA900, removing any wild-type and knock out cells from the final subsets, thus yielding high purity of knock in.
# antibody Refmab #1 [2] = assay: Octet screen: binding of CD117 D1-2-3 variants to captured Refmab #1; settings: nm shift at end of association, top analyte concentration (500 nM)
# Method in brief: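 Refmab #1 captured on anti-human Fc biosensors; human CD117 D1-2-3 wt or variants flowed as analyte at 500, 50 and 5 nM, 25° C., 300 s association/900 s dissociation, buffer-referenced. Binding level at top concentration, end of association, expressed as percent of wild type; 1:1 fits where possible.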
# antibody Refmab #1 [3] = assay: Octet titration, steady state KD of CD117 D1-2-3 variants to Refmab #1; assay type: binding
# Experimental: To further characterize binding of Refmab #1 to CD117 D1-2-3 variants E73K, E73L, E73R, E73Y, D121H, D121K, S123K and S123F, the analytes were titrated at 7 different concentrations (from 2000 nM to 5 nM). Antibody Refmab #1 was captured by AHC biosensors for 300 s at 0.5 to 1 μg/mL. Association and dissociation to Refmab #1 was extended to 600 s and 1000 s, respectively. Steady state analysis was performed.
# TF-1 cells [4] = assay: SCF-dependent phosphorylation of CD117 variants in TF-1 cells (Tyr719 ELISA); assay type: cell-based, human; settings: 1-20 ng/ml SCF for 5 minutes
# Experimental: TF-1 cells (wild type, knock out, and variants E73K, D121K and S123K of CD117) were seeded at a concentration of 1 million cells/ml in 2 ml of Medium (RPMI1640 supplemented with GlutaMAX+10% heat inactivated FBS) in a 6-well plate. Cells were treated with 1-20 ng/ml recombinant human SCF (1 mg/ml PeproGMP Recombinant Human SCF) for 5 minutes, before cell collection. Cells were washed with ice-cold PBS, before resuspending cells in 500 μL Lysis Buffer (Lysis buffer from Signaling containing Protease Inhibitor and Phosphatase Inhibitor). Cells were flash frozen in liquid nitrogen and thawed at 37° C. twice, before freezing them at −80° C. until further usage. Undiluted samples were thawed and processed according to the manufacturers protocol for the PathScan Phospho-c-Kit (Tyr719) Sandwich ELISA Kit (Cell Signaling). Absorbance (OD_450 nm) was assessed using the Envision (Perkin Elmer).
# TF-1 cells [5] = assay: SCF-dependent proliferation, SCF titration on TF-1 cells with CD117 variants (CellTiter-Glo); assay type: cell-based, human; settings: titration of SCF; 3 days; TF-1 cells with the CD117 variant
# Method in brief: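 TF-1 cells expressing wildtype or variant CD117 seeded at 150 000 cells/ml in RPMI+GlutaMax+10% FCS and titrated with SCF. Viability read by CellTiter-Glo 2.0 luminescence after 3 days; EC50 determined from two experiments, each in triplicate.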
# CD117+ myeloid cells = assay: Depletion experiment in NSG mice with E73K gene-edited HSPCs; assay type: in vivo; settings: in the presence of isotype control antibody
# Experimental: In another experiment, NSG mice (Jackson Laboratories) were sub-lethally irradiated one day before injection with 1 Mio gene-edited HSPCs carrying a E73K variant of CD117. 8, 10, 12 and 14 days after cell injection mice received 25 mg/kg antibody Refmab #1-Bert or 25 mg/kg isotope control antibody i.v. per dose. 16 weeks later the mice were euthanized, and blood, spleen and bone marrow were analyzed by FACS.
# CD117+ myeloid cells were identified by FACS as live/hCD45+/CD33+/CD117+. […] Clone 104D2 was used as an expression control. Cells were classified as not edited (104D2+ and SR-1+) or E73K edited (104D2+ but SR-1−) based on double staining with anti-CD117 clone SR-1 and anti-CD117 clone 104D2.
# CD117 D1-2-3 wt = biological target: T3, CD117 D1-2-3 wt (human, UniProt P10721 26-311, limits assumed); assay: BLI (Octet) as in Example 7, CD117 as analyte; affinity class as drawn, classes defined by the key on the sheet
# T3 construct: also called human CD117 wt containing only domains 1, 2 and 3; wild type CD117 (recombinant purified)
# [6] = biological target: human CD117 D1-2-3 variant Y259E (human, UniProt P10721 26-311, limits assumed); assay: BLI (Octet) as in Example 7, CD117 variant as analyte; affinity class as drawn, classes defined by the key on the sheet
# Experimental: (§1) As an analyte, human CD117 wt and variants, containing only domains 1, 2 and 3 (CD117 D1-2-3), was titrated at 500 nM, 50 nM and 5 nM. […] Reference subtraction was performed against buffer only wells. AHC tips were regenerated using 10 mM Gly-HCl pH 1.7. Data were analyzed using the Octet Data Analysis software HT 12.0. Data were fitted (when possible) to a 1:1 binding model. Kinetic rates ka and ka were globally fitted. […] For this qualitative analysis, the binding level of the top analyte concentration at end of the association step was used.
# [7] = biological target: human CD117 D1-2-3 variant Y259P (human, UniProt P10721 26-311, limits assumed); assay: as above
# Experimental: as §1
# S261V = biological target: T1, S261V; assay: as above
# Experimental: as §1
# [8] = biological target: human CD117 D1-2-3 variant Y259A (human, UniProt P10721 26-311, limits assumed); assay: as above
# Experimental: as §1
# Y259G = biological target: T2, Y259G; assay: as above
# Experimental: as §1
# [9] = biological target: T4, human CD117 D1-2-3 variant S261Q (human, UniProt P10721 26-311, limits assumed); assay: BLI (Octet) as in Example 7, CD117 variant as analyte; affinity class as drawn
# T4 construct: Recombinant purified
# [10] = biological target: T5, human CD117 D1-2-3 variant S261E (human, UniProt P10721 26-311, limits assumed); assay: as above
# T5 construct: Recombinant purified
# human wild-type CD117 [11] = biological target: T6, human wild-type CD117 (human, UniProt P10721 26-976); assay: flow cytometry, HEK-293T with wt CD117 vs vector alone, IgG at 0.063 µg/mL
# T6 construct: also called wt CD117; KIT
# Experimental: Binding of the antibodies to the transfected cells and the optimal assay conditions were evaluated in 384-well format. Detection of cellular expression was measured via high-throughput flow cytometry. Serial dilutions of each antibody were tested for immunoreactivity against cells expressing CD117 or vector alone. The optimal screening concentration for each antibody was determined based on the raw signal values and signal-to-background calculations. Each point represents the mean of four replicates.
# human wild-type CD117 [12] = biological target: T6, human wild-type CD117; assay: flow cytometry, HEK-293T with wt CD117 vs vector alone, Fab at 0.50 µg/mL
# [13] = Melting temperature of CD117 variants by differential scanning fluorimetry; assay type: physicochemical; settings: Sypro Orange, PBS, 25 to 95° C.
# Experimental: Biophysical properties of the elected variants were tested. Aggregation of the elected CD117 variants was determined by preparative size exclusion chromatography. Yield of the elected CD117 variants was determined by dividing the amount of protein after purification by the production volume. Melting temperature was measured by differential scanning fluorimetry using Sypro Orange (Sigma, PN: S5692-50 ul) and an RT-PCR machine (C1000 Thermal Cycler, Biorad). The samples were measured at 0.25-1.0 mg/ml in PBS buffer in duplicates and Sypro Orange was added at a final concentration of 5×. […] The fluorescent increase was monitored as a function of temperature and the melting temperature was determined as the inflexion point of the sigmoidal curve and compared to wild-type CD117. Results are shown in FIGS. 4 (aggregation), 5 (yield) and 6 (melting temperature).
# Biotinylated Avitag-hSCF = biological target: T7, Biotinylated Avitag-hSCF (human, UniProt P21583 26-190, limits assumed, biotinylated Avitag); assay: BLI (Octet), steady state: biotinylated SCF on streptavidin biosensor, CD117 D1-2-3 variant as analyte; KD relative to WT
# T7 construct: Bought reagent; also called hSCF (Acros Biosystems SCF-H82E1)
# T7 sequence (P21583 26-190 limits assumed): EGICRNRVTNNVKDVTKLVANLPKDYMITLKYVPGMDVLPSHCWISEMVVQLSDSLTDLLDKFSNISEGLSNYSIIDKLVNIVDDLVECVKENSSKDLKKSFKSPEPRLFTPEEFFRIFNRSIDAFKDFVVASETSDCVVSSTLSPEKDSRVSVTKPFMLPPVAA
# Experimental: Domains 4 and 5 were used as a negative, non-binding control.
# Association was monitored for 300 s and dissociation for 600 s. […] Reference subtraction was performed against buffer only wells. Biosensors were not regenerated and a new set of SA biosensors was used for each analyte. Data were analyzed using the Octet Data Analysis software HT 12.0. Steady state data analysis was performed due to the fast on/off nature of the interaction.
molecule,measurement,setting,value
E73K: variant of human CD117 (SEQ ID NO: 1) with substitution E73K,Binding of Refmab #1 to TF-1 cells expressing the CD117 variant,Refmab #1,completely abolished
same,SCF-dependent proliferation,TF-1 cells [1],strongly proliferated
same,binding to Refmab #1 compared to wild type,antibody Refmab #1 [2],strong decrease in binding
same,Kd,"antibody Refmab #1 [3]; 7 concentrations 2000-5 nM, steady state, two individual experiments",1200 nM
same,change of KD compared to wild type CD117,antibody Refmab #1 [3]; KD variant vs wild type,1200 fold
same,SCF-dependent phosphorylation at position Tyr719 of CD117,TF-1 cells [4],showed a SCF-dependent phosphorylation
same,EC50 Experiment #1,TF-1 cells [5],3.73 ng/mL
same,EC50 Experiment #2,TF-1 cells [5],3.42 ng/mL
same,engraftment of edited CD34+ human cells in immune-deficient mice,CD117+ myeloid cells,engraft essentially as well as unedited cells
"Refmab #3 (antibody, V domains shown) VH: EVQLVQSGAEVKKPGESLKISCKGSGYSFTNYWIGWVRQMPGKGLEWMAIINPRDSDTRYRPSFQGQVTISADKSISTAYLQWSSLKASDTAMYYCARHGRGYEGYEGAFDIWGQGTLVTVSS VL: DIQMTQSPSSLSASVGDRVTITCRSSQGIRSDLGWYQQKPGKAPKLLIYDASNLETGVPSRFSGSGSGTDFTLTISSLQPEDFATYYCQQANGFPLTFGGGTKVEIK",Kd,CD117 D1-2-3 wt,< 5 nM
same,Kd,[6],< 5 nM
same,Kd,[7],> 50 nM
same,Kd,S261V,> 50 nM
same,Kd,[8],> 50 nM
same,Kd,Y259G,> 50 nM
same,binding result,[9],no binding (tested: not shown on the sheet)
same,binding result,[10],no binding (tested: not shown on the sheet)
same,Signal:Background,human wild-type CD117 [11],8 ratio to background
"Refmab #3 Fab fragment (Fab, V domains shown) VH: EVQLVQSGAEVKKPGESLKISCKGSGYSFTNYWIGWVRQMPGKGLEWMAIINPRDSDTRYRPSFQGQVTISADKSISTAYLQWSSLKASDTAMYYCARHGRGYEGYEGAFDIWGQGTLVTVSS VL: DIQMTQSPSSLSASVGDRVTITCRSSQGIRSDLGWYQQKPGKAPKLLIYDASNLETGVPSRFSGSGSGTDFTLTISSLQPEDFATYYCQQANGFPLTFGGGTKVEIK",Signal:Background,human wild-type CD117 [12],6 ratio to background
"V120P (receptor, not in the list MOLECULES; also called human CD117 D1-2-3 variant V120P) extracellular domains 1, 2 and 3: QPSVSPGEPSPPSIHPGKSDLIVRVGDEIRLLCTDPGFVKWTFEILDETNENKQNEWITEKAEATNTGKYTCTNKHGLSNSIYVFVRDPAKLFLPDRSLYGKEDNDTLVRCPLTDPEVTNYSLKGCQGKPLPKDLRFIPDPKAGIMIKSVKRAYHRLCLHCSVDQEGKSVLSEKFILKVRPAFKAVPVVSVSKASYLLREGEEFTVTCTIKDVSSSVYSTWKRENSQTKLQEKYNSWHHGDFNYERQATLTISSARVNDSGVFMCYANNTFGSANVTTTLEVVD",melting temperature,[13],two melting points were measured
same,binding result,Biotinylated Avitag-hSCF,binds
